According to patent US20130295102A1 (Novartis, published 2013):
Where a chain is given by its changes, count along the chain named.

Assays:
Human Factor P [1] = target: T1, Human Factor P (human, UniProt P27918 29-469); test: cell-based or functional assay
Cynomolgus Factor P [2] = target: Cynomolgus Factor P (cynomolgus); test: cell-based or functional assay
Human Factor P [3] = target: T1, Human Factor P; test: Biacore SPR, captured Factor P
Cynomolgus Factor P [4] = target: T2, Cynomolgus Factor P (cynomolgus); test: Biacore SPR, captured Factor P
T2 construct: Purified from cynomolgus serum for SET/Biacore; Factor P of cynomolgus serum in the functional assays; also called Cyno Factor P; cyno FP

Human Factor P [5] = target: T1, Human Factor P; test: SET, solution equilibrium titration
Experimental: (§1) In SET, a constant amount of antibody is incubated with different concentrations of antigen until equilibrium is reached. The concentration of free antibody in the equilibrated solution is determined by applying the solution on an antigen coated MSD™ plate (Meso Scale Discovery™) followed by incubation with an ECL-labeled secondary antibody and measurement of signal intensity. At low antigen concentrations, a strong signal is achieved (high concentration of free antibody which binds to the antigen on the plate) whereas for high antigen concentration, the antibody is completely antigen-captured, resulting in a low signal. If a sufficient number of antigen concentrations in a matching range are available, the titration curve allows for a reasonable determination of the affinity, using the appropriate fit model. […] The constant concentration of antibody applied in the assay should be in the range of, or below, the KD (Table 4).
(§2) Human Factor P (Complement Technology cat#: A139) and Cyno Factor P purified from cyno serum (protocol adapted from Nakano, et al., (1986) J Immunol Methods 90:77-83) were coated on standard binding MSD plates (Meso-Scale Discovery, 384-well: MSD cat#: L21XA, 96-well: MSD cat#: L15XA) at 0.2-0.3 μg/ml in 25 μl PBS and incubated overnight at 4° C. Factor P inhibitors were diluted to a fixed concentration (1 pM or 10 pM) in incubation buffer (PBS with 2% BSA (Sigma cat#: A4503) and 1% Tween20 and 1% Triton-X (Sigma cat#: 234729)), and added to a serial dilution of Factor P (human or cyno) in incubation buffer. Samples were allowed to reach equilibrium by incubation at RT overnight. Plates were washed 3× in wash buffer (PBS with 0.05% Tween20), and blocked with 100 μl incubation buffer at RT for 2 hrs. Plates were washed 3× in wash buffer. Sample containing Factor P inhibitors and Factor P titration were added to the plate (25 μl), and incubated at RT for 15 min. Plates were washed 3× in wash buffer. 25 μl detection antibody was added (Anti-Human (Goat) Sulfo-TAG, 1:1000 in incubation buffer, MSD cat#: R32AJ-1), and incubated at RT for 60 min. Plates were washed 3× in wash buffer, and 50 μl of 1×MSD Read buffer T was added (with surfactant, MSD cat#: R92TC-1). Plates were read on a MSD Spector Imager 6000.

Cynomolgus Factor P [6] = target: T2, Cynomolgus Factor P; test: SET, solution equilibrium titration
Experimental: as §1, §2

T1 sequence (P27918 29-469 limits assumed): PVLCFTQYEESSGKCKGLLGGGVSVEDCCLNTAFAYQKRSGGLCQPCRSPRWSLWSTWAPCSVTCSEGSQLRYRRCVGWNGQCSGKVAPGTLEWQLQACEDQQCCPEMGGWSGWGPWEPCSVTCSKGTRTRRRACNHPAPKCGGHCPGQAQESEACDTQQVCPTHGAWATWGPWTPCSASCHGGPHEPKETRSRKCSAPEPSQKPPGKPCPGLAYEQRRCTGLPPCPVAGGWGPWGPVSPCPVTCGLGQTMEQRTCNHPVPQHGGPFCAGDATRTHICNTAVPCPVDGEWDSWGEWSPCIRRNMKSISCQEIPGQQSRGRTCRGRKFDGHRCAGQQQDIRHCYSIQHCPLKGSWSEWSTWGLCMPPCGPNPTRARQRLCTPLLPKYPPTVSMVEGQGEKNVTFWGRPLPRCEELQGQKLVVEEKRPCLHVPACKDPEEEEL

B1: NVS962-S (Fab, V domains shown)
VH: EVQLVQSGAEVKKPGSSVKVSCKASGGTFSSYAISWVRQAPGQGLEWMGRIIPIFGTANYAQKFQGRVTITADESTSTAYMELSSLRSEDTAVYYCARHGGYSFDSWGQGTLVTVSS
VL: SYELTQPPSVSVAPGQTARISCSGDNLGSKYVDWYQQKPGQAPVLVIYSDNNRPSGIPERFSGSNSGNTATLTISGTQAEDEADYYCQTYTSGNNYLVFGGGTKLTVLG
notes: NVS962 with heavy chain N30 replaced with serine
Hemolytic assay IC50 (nM), 10% serum (Human Factor P [1]): 8.21 nM
MAC Deposition, 20% Serum EC50 (Human Factor P [1]): 6.53 nM
Zymosan-C3b IC50 (nM), 10% serum (Human Factor P [1]): 1.53 nM
Hemolytic assay IC50 (nM), 10% serum (Cynomolgus Factor P [2]): 12 nM
MAC Deposition, 20% Serum EC50 (Cynomolgus Factor P [2]): 15.6 nM
Zymosan-C3b IC50 (nM), 10% serum (Cynomolgus Factor P [2]): 1.94 nM
Kd (Human Factor P [3]): 0.161 nM
koff (Human Factor P [3]): 0.000117 s⁻¹
kon (Human Factor P [3]): 730000 M⁻¹ s⁻¹
Kd (Cynomolgus Factor P [4]): 0.127 nM
koff (Cynomolgus Factor P [4]): 6.66e-05 s⁻¹
kon (Cynomolgus Factor P [4]): 524000 M⁻¹ s⁻¹
Kd (Human Factor P [5]): 0.156 nM
Kd (Cynomolgus Factor P [6]): 0.141 nM

B2: NVS965-Q (Fab, V domains shown)
VH: B1 VH with S30Q
VL: B1 VL with E3V, Q16K, E80M, Q88A, T91D, G93S, N94P, N95R, Y96T, L97E
notes: NVS965 with heavy chain N30 replaced with glutamine
Hemolytic assay IC50 (nM), 10% serum (Human Factor P [1]): 9.71 nM
MAC Deposition, 20% Serum EC50 (Human Factor P [1]): 15.4 nM
Zymosan-C3b IC50 (nM), 10% serum (Human Factor P [1]): 1.64 nM
Hemolytic assay IC50 (nM), 10% serum (Cynomolgus Factor P [2]): 14.7 nM
MAC Deposition, 20% Serum EC50 (Cynomolgus Factor P [2]): 9.39 nM
Zymosan-C3b IC50 (nM), 10% serum (Cynomolgus Factor P [2]): 3.3 nM
Kd (Human Factor P [3]): 0.138 nM
koff (Human Factor P [3]): 0.000366 s⁻¹
kon (Human Factor P [3]): 2.65e+06 M⁻¹ s⁻¹
Kd (Cynomolgus Factor P [4]): 0.215 nM
koff (Cynomolgus Factor P [4]): 0.000594 s⁻¹
kon (Cynomolgus Factor P [4]): 2.77e+06 M⁻¹ s⁻¹
Kd (Human Factor P [5]): 0.301 nM
Kd (Cynomolgus Factor P [6]): 0.201 nM

B3: NVS965 (Fab, V domains shown)
VH: B1 VH with S30N
VL: B1 VL with E3V, Q16K, E80M, Q88A, T91D, G93S, N94P, N95R, Y96T, L97E
notes: Disulfide-bridged Fab; also called Fab NVS965
Hemolytic assay IC50 (nM), 10% serum (Human Factor P [1]): 7.53 nM
Inhibition of C3a generation, 20% human serum (Human Factor P [1]): 31.3 nM
MAC Deposition, 20% Serum EC50 (Human Factor P [1]): 17.3 nM
Zymosan-C3b IC50 (nM), 10% serum (Human Factor P [1]): 1.54 nM
Hemolytic assay IC50 (nM), 10% serum (Cynomolgus Factor P [2]): 13.2 nM
MAC Deposition, 20% Serum EC50 (Cynomolgus Factor P [2]): 22.2 nM
Zymosan-C3b IC50 (nM), 10% serum (Cynomolgus Factor P [2]): 6.36 nM
Kd (Human Factor P [3]): 0.016 nM
koff (Human Factor P [3]): 4.1e-05 s⁻¹
kon (Human Factor P [3]): 2.65e+06 M⁻¹ s⁻¹
Kd (Cynomolgus Factor P [4]): 0.028 nM
koff (Cynomolgus Factor P [4]): 6.22e-05 s⁻¹
kon (Cynomolgus Factor P [4]): 2.24e+06 M⁻¹ s⁻¹
Kd (Human Factor P [5]): 0.036 nM
Kd (Cynomolgus Factor P [6]): 0.014 nM

B4: NVS965-T (Fab, V domains shown)
VH: B1 VH with S30T
VL: B1 VL with E3V, Q16K, E80M, Q88A, T91D, G93S, N94P, N95R, Y96T, L97E
notes: NVS965 with heavy chain N30 replaced with threonine
Hemolytic assay IC50 (nM), 10% serum (Human Factor P [1]): 7.15 nM
MAC Deposition, 20% Serum EC50 (Human Factor P [1]): 13.8 nM
Zymosan-C3b IC50 (nM), 10% serum (Human Factor P [1]): 0.77 nM
Hemolytic assay IC50 (nM), 10% serum (Cynomolgus Factor P [2]): 12.5 nM
MAC Deposition, 20% Serum EC50 (Cynomolgus Factor P [2]): 11 nM
Zymosan-C3b IC50 (nM), 10% serum (Cynomolgus Factor P [2]): 1.91 nM
Kd (Human Factor P [3]): 0.0514 nM
koff (Human Factor P [3]): 0.000103 s⁻¹
kon (Human Factor P [3]): 2.37e+06 M⁻¹ s⁻¹
Kd (Cynomolgus Factor P [4]): 0.0746 nM
koff (Cynomolgus Factor P [4]): 0.000151 s⁻¹
kon (Cynomolgus Factor P [4]): 2.17e+06 M⁻¹ s⁻¹
Kd (Human Factor P [5]): 0.052 nM
Kd (Cynomolgus Factor P [6]): 0.044 nM

B5: NVS962-T (Fab, V domains shown)
VH: B1 VH with S30T
VL: B1 VL
notes: NVS962 with heavy chain N30 replaced with threonine; also called NSV962-T
Hemolytic assay IC50 (nM), 10% serum (Human Factor P [1]): 9.31 nM
MAC Deposition, 20% Serum EC50 (Human Factor P [1]): 6.61 nM
Zymosan-C3b IC50 (nM), 10% serum (Human Factor P [1]): 1.75 nM
Hemolytic assay IC50 (nM), 10% serum (Cynomolgus Factor P [2]): 12.5 nM
MAC Deposition, 20% Serum EC50 (Cynomolgus Factor P [2]): 5.42 nM
Zymosan-C3b IC50 (nM), 10% serum (Cynomolgus Factor P [2]): 3.1 nM
Kd (Human Factor P [3]): 0.131 nM
koff (Human Factor P [3]): 8.35e-05 s⁻¹
kon (Human Factor P [3]): 639000 M⁻¹ s⁻¹
Kd (Cynomolgus Factor P [4]): 0.175 nM
koff (Cynomolgus Factor P [4]): 8.56e-05 s⁻¹
kon (Cynomolgus Factor P [4]): 488000 M⁻¹ s⁻¹
Kd (Human Factor P [5]): 0.251 nM
Kd (Cynomolgus Factor P [6]): 0.354 nM

B6: NVS966 (Fab, V domains shown)
VH: EVQLVQSGAEVKKPGESLKISCKGSGYSFTNYWIGWVRQMPGKGLEWMGRIDPGESLTNYAPSFQGQVTISADKSISTAYLQWSSLKASDTAMYYCARTGVADVDMPFAHWGQGTLVTVSS
VL: SYVLTQPPSVSVAPGKTARISCSGDNLGSYYVNWYQQKPGQAPVLVIYGDSERPSGIPERFSGSNSGNTATLTISRAQAGDEADYYCGSWDITSFVFGGGTKLTVLG
notes: Disulfide-bridged Fab; also called Fab NVS966
Hemolytic assay IC50 (nM), 10% serum (Human Factor P [1]): 7.15 nM
Inhibition of C3a generation, 20% human serum (Human Factor P [1]): 41.1 nM
Zymosan-C3b IC50 (nM), 10% serum (Human Factor P [1]): 1.66 nM
Hemolytic assay IC50 (nM), 10% serum (Cynomolgus Factor P [2]): 13 nM
Zymosan-C3b IC50 (nM), 10% serum (Cynomolgus Factor P [2]): 6.62 nM
Kd (Human Factor P [3]): 0.16 nM
koff (Human Factor P [3]): 0.0003 s⁻¹
kon (Human Factor P [3]): 2e+06 M⁻¹ s⁻¹
Kd (Cynomolgus Factor P [4]): 0.21 nM
koff (Cynomolgus Factor P [4]): 0.0002 s⁻¹
kon (Cynomolgus Factor P [4]): 1e+06 M⁻¹ s⁻¹
Kd (Human Factor P [5]): 0.07 nM
Kd (Cynomolgus Factor P [6]): 0.04 nM
